Publication PMC7961039, “Musashi-2 (MSI2) regulates epidermal growth factor receptor (EGFR) expression and response to EGFR inhibitors in EGFR-mutated non-small cell lung cancer (NSCLC)”

Target: Musashi-2 (MSI2) (UniProt Q96DH6 1-328)
Test: EMSA; 10 mM HEPES pH 7.6, 20 mM KCl, 1 mM MgCl2, 1 mM DTT, 5% glycerol, protease inhibitors, 2 ug tRNA, 20 U SUPERase-In, 20 ul, 50 ng MSI2, 20 ng RNA, 25 C; 8% PAGE
Settings: protein: recombinant; label: 5'-32P

Sequence of Musashi-2 (MSI2) (Q96DH6 whole entry): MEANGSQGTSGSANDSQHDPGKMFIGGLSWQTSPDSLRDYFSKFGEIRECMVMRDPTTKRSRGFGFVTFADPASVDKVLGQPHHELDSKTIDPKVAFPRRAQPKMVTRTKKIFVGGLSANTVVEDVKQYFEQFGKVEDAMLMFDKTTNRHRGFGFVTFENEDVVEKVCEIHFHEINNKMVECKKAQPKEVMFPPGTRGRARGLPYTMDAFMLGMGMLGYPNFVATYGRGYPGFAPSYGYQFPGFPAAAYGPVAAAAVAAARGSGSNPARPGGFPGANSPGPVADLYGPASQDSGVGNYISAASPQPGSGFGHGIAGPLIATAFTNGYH

| Binder | binding result |
| --- | --- |
| GCAGAUGUUUUAGAAGGAAAAA (ssRNA) [EGFR Oligo 1 wt] | binds |
| UAACUUCGUUUUAGAAACAUUCAAG (ssRNA) [EGFR Oligo 2 wt] | binds |
| GUAGUAGUAGUAGUA (ssRNA) [Positive Control oligo] | binds |
| GGUCCCAAGCCAAGCCUUAAGU (ssRNA) [Negative Control oligo] | no binding |
